Reference: patent US20170052184A1 (published 2017)

Key:
[1] = molecular target: T1, HCV Core 134-171-TT Peptide (hepatitis C virus (HCV-1 numbering) …); assay: SPR, captured mAb, peptide analyte
T1 construct: also called ALRZ-9 peptide

HCV Core1-169 [2] = molecular target: T2, HCV Core1-169 (hepatitis C virus (HCV-1), UniProt P26664 1-169); assay: SPR sandwich, capture mAb C11-14
T2 sequence: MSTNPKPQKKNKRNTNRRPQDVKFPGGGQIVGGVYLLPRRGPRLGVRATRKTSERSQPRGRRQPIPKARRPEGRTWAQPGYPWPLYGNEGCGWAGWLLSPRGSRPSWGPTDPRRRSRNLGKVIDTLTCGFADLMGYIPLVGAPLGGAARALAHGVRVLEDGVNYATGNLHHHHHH

HCV Core1-169 [3] = molecular target: T2, HCV Core1-169; assay: SPR sandwich, capture mAb C11-3
HCV Core1-169 [4] = molecular target: T2, HCV Core1-169; assay: SPR sandwich, capture mAb C11-9
HCV Core1-169 [5] = molecular target: T2, HCV Core1-169; assay: SPR sandwich, capture mAb C11-7
HCV Core1-169 [6] = molecular target: T3, HCV Core1-169 (HCV-1, UniProt P26664 1-169); assay: EIA, core1-169 captured by mAb 14-153-229; note: test concentration or dose not given here
T3 construct: also called recombinant HCV core antigen
T3 sequence: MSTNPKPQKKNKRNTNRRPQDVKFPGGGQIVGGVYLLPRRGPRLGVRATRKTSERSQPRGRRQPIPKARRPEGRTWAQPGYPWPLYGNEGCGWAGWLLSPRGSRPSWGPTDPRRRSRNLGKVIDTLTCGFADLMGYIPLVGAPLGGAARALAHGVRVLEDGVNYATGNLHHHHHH

HCV Core1-169 [7] = molecular target: T3, HCV Core1-169; assay: EIA, core1-169 coated on plate; note: test concentration or dose not given here

| Binder | OD (A492) (HCV Core1-169 [6]) [OD] | OD (A492) (HCV Core1-169 [7]) [OD] | further results |
| --- | --- | --- | --- |
| HCV 208B-672 (antibody, V domains shown) VH: EVKLVESGGSLVQPGGSLKLSCAASGFNFNTYAMSWVRQTPEKRLEWVAYISNGGGNTYYVDTVKGRFTISRDNAKNTLYLRMSSLKSEDTAMYYCARHGLYWGYSMDYWGQGTSVTVSS VL: DIQMTQSPSSLSASLGERVSLTCRASQDIGGSINWLQQEPDGTIKRLIYATSSLDSGVPKRFSGSRSGSDYSLTISSLESEDFVDYYCLQYASSPPTFGGGTKLEIKR |  |  | Kd [1]: 0.16 nM; koff [1]: 0.00034 s⁻¹; kon [1]: 2.2e+06 M⁻¹ s⁻¹; expected percent binding (HCV Core1-169 [2]): 2.7%; expected percent binding (HCV Core1-169 [3]): 2.6%; expected percent binding (HCV Core1-169 [4]): ≤ 1%; expected percent binding (HCV Core1-169 [5]): 2.8% |
| HCV 208A-557 (antibody, V domains shown) VH: QGQMQQSGAELVKPGASVKLSCKTSGFTFSSSYISWLKQKPGQSLEWIAWIYAGTGNTNYNQKFTDKAQLTVDTSSSTAYMQLSSLTTEDSAIYYCAISGTGFTYWGQGTLVTVSA VL: DIALTQSPASLAVSLGQRATISCRASQSVSTSRYSYMHWYQQKPGQPPELLIKYASNLESGVPARFSGSGSGTDFTLNIHPVGEEDTATYYCQHSWDFPFTFGSGTKLEIKR | 2.39 | 1.4 |  |
| HCV 208A-134 (antibody, V domains shown) VH: QGQMQQSGAELAKPGASVKLSCKTSGFTFSSSYISWLKQKPGQSLEWIAWIYAGTGNTNYNQKFTDKAQLTVDTSSSTAYMQLSSLTTEDSAIYYCAISGTGFTYWGQGTLVTVSA VL: EVLMTQSPLSLPVSLGDQASISCRSSQSLEHTNGNTYLEWFLQRPGQPPKLLIYKVSSRFSGVPDRFSGSGSGTDFTLKISRVEAEDLGVYYCFQGSHVPFTFGSGTKLAIKR | 0.13 | 0.1 |  |
| HCV 208A-830 (antibody, V domains shown) VH: EVRLQQPGPEVEKPGASVKISCKTSGYTFTEYAIHWVKQSHGESLEWIGGINPSNGDPIYNQIFKDKATLTVDRSSNTAYMGLRSLTVGDSGVYFCVRRQLDYFDFWGQGASLTVSS VL: DIVLTQSPASLAVSLGQRATISCRSSQSVSTSRYSYLHWYQQKPGQPPKLLIKYASNLESGVPARFSGSGSGTDFTLNIHPVGEEDPATYYCQHSWEFPFTFGSGTKLEIKR | 2.09 | 1.16 |  |
| HCV 208B-560 (antibody, V domains shown) VH: EVQLQQSGPELEKPGASVKISCKTSGYTFTEYAMHWVKQSHGMSLEWIGGINPSNGNAIYNQIFKDKATLTVDRSSSTAYMGLRSLTFGDSGVYFCVRRQLDFFDYWGQGASLTVSS VL: DIVVTQSPASLAVSLGQRATISCRASQSVSTSRYSYLHWYQQKPGQPPKLLIKYASNLESGVPARFSGSGSGTDFTLNIHPVGEEDTATYYCQHSWEFPFTFGSGTKLEIKR | 1.3 | 1.07 |  |
| HCV 208A-920 (antibody, V domains shown) VH: not shown VL: DIVLTQSPASLAVSLGQRATISCRASQSVSTSRYSYMHWYQQKPGQPPKLLIKYASNLESGVPARFSGSGSGTDFTLNIHPVAEEDTAAYYCQHSWEFPFTFGSGTKLEIKR | 1.82 | 1.14 |  |
| HCV 208A-159 (antibody, V domains shown) VH: QLQQSGPAQVKPGASVMISCKTSGYTFTENAMHWVKQSHGKSLEWIGGVNPNNGDTIFNQKFKDKAALTVDKSSSTAFMELRSLTSEESTVYYCVRRELDFFDYWGQGTSVTVSS VL: DIVLTQSPASLAVSLGQRATISCRASQSVSTSRYSYVHWYQQKPGQPPKLLIKYAANLESGVPARFSGSGSGTDFTLNIHPVAEEDAAAYYCQHSWEFPFTFGSGTKLEIKR | 1.29 | 0.57 |  |
| HCV 208B-556 (antibody, V domains shown) VH: QLQQSGPVLVKPGASVMISCKTSGYTFTENAMHWVKQSHGKSLEWIGGVNPNNGDTIFNQKFKGKATLTVDKSSSTAFMEFRSLTSEESTVYYCVRRELDFFDYWGQGTSVTVSS VL: DIVLTQSPASLAVSLGQRATISCRASQSVSTSRYSYMHWYQQKPGQPPKLLIKYASNLESGVPARFSGSGSGTDFTLNIHPVAEEDTATYYCQHSWEFPFTFGSGTKLEIKR | 1.35 | 0.74 |  |
| HCV 208B-251 (antibody, V domains shown) VH: QLQQSGPVLVKPGASVKISCKTSGYTFTENAMHWVKQSHGKSLEWIGGVNPNNGDTIYNQKFKGKATLTVDKSSSTAFMELRSLTSEESPVYFCVRRELDFFDYWGQGTSVTVSS VL: DIVLTQSPASLAVSLGKKATISCRASQSVSTSRYSYMHWYQQKPGHPPKLLIKYASNLESGVPARFSGSGSGTDFTLNIHPVAEEDTAAYYCQHSWEFPFTFGSGTKLEIKR | 1.39 | 0.79 |  |
| HCV 208A-334 (antibody, V domains shown) VH: not shown VL: DIVLTQSPASLAVSLGQRATISCRASQSVSTSRYSYMHWYQQKPGQPPKLLIKYASNLESGVPARFSGSGSGTDFTLNIHPVAEEDTAAYYCQHSWGFPFTFGSGTKLEIKR | 1.9 | 1.28 |  |
| HCV 208A-110 (antibody, V domains shown) VH: not shown VL: DIVLTQSPASLAVSLGQRATISCRASQSVSTSRYSYMHWYQQKPGQPPKLLIKYASNLESGVPARFSGSGSGTDFTLNIHPVAEEDTAAYYCQHSWEFPFTFGSGTKLEIKR | 1.87 | 1.6 |  |
| HCV 208A-126 (antibody, V domains shown) VH: QLQQSGPVLVKPGASVMISCKTSGYTFTENAMHWVKQSHGKSLEWIGGVNPNNGDTIFNQKFKGKATLTVDKSSNTAFTELRSLPSEESTVYYCVRRGLDFFDYWGQGTSVTVSS VL: DIVLTQSPASLAVSLGQRATISCRASQSVSTSRYSYMHWYQQKPGQPPKLLIKYASNLESGVPARFSGSGSGTDFTLNIHPVAEEDTAAYYCQHSWEFPFTFGSGTKLEIKR | 1.2 | 0.69 |  |
| HCV 208A-741 (antibody, V domains shown) VH: QLQQSGPVLVKPGASVMISCKTSGYTFTENAMHWVKQSHGKSLEWIGGVNPNNGDTIFNQKFKGKATLTVDKSSSTAFMELRSLTSEESTVYYCVRRELDFFDYWGQGTSVTVSS VL: DIVLTQSPASLAVSLGQRTTISCGASQSVSTSRFSYMHWYQQKPGQPPKLLIKYASNLESGVPARFSGSGSGTDFTLNIHPVAEEDTAAYYCQHSWEFPFTFGSGTKLEIKR | 1.9 | 1.2 |  |
| HCV 208A-692 (antibody, V domains shown) VH: QGQMQQSGAELAKPGASVKLSCKTSGFTFSSSYISWLKQKPGQSLEWIAWIFAGTGNTNYNQKFTDKAQLTVDTSSSTAYMQLSSLTTEDSAIYYCAISGTGFTYWGQGTLVTVSA VL: EVLMTQSPLSLPVSLGDQASISCRSSQSLEHSNGNTYLEWFLQRPGQPPKLLIYKVSSRFSGVPDRFSGSGSGTDFTLKISRVEAEDLGVYYCFQGSHVPFTFGSGTKLAIKR | 0.57 | 0.07 |  |
| HCV 208A-133 (antibody, V domains shown) VH: QLQQSGPVLVGPGASVMISCKTSGYTFTENAMHWVEQSHGKSLEWIGGVNPNNGDTIFNQKFKGKATLTVDKSSSTAFMEFRSLTSEESTVYYCVRRELDFFDYWGQGTSVTVSS VL: DIVLTQSPASLAVSLGQRATISCRASQSVSTSRYSYMHWYQQKPGQPPKLLIKYASNLESGVPARFSGSGSGTDFTLNIHPVAEEDTATYYCQHSWEFPFTFGSGTKLEIKR | 1.46 | 1.73 |  |
| HCV 208A-605 (antibody, V domains shown) VH: EVQLQQSGPELEKPGASVKISCKTSGYTFTEYAIHWVKQSHGMSLEWIGGINPSNGNAIYNQIFKDKATLTVDRSSSTAYMGLRSLTFGDSGVYFCVRRQLDFFDYWGQGASLTVSS VL: DIVVTQSPASLAVSLGQRATISCRASQSVSTSRYSYLHWYQQKPGQPPKLLIKYASNLESGVPARFSGSGSGTDFTLNIHPVGEEDTATYYCQHSWEFPFTFGSGTKLEIKR | 2.21 | 0.55 |  |
| HCV 208A-222 (antibody, V domains shown) VH: EVQLQQSGPELEKPGASVRISCKTSGYTFTEYAMHWVKQSHGKSLEWIGGINPNNGNAIYNQIFKDKATLTVDRSSSTAYMGLRSLTFGDSGVYFCVRRQLDYFDYWGQGASLTVSS VL: DIVVTQSPASLAVSLGQRATISCRASQSVSTSRYSYLHWYQQKPGQPPKLLIKYASNLESGVPARFSGSGSGTDFTLNIHPVGEEDTATYYCQHSWEFPFTFGSGTKLEIKR | 2.07 | 1.06 |  |
| HCV 208A-442 (antibody, V domains shown) VH: DVQLQESGPGLVNPSQSLSLTCSVTGYSITSGYYWIWIRQFPGNKLEWMGYIKYDGGNNYSPSLKNRISIARDTSKNQFFLKLNSVTIEDTATYYCTRGSDSFDYWGQGTTLTVSS VL: DIVLTQSPASLAVSLGQRAIISCKASQSVSFAGTNLMHWYQQKPGQQPKLLIYRASNLETGVPTRFSGSGSRTDFTLNIHPVEEDDAATYYCQQSREYYTFGGGTKLEIKR | 0.36 | 1.61 |  |
| HCV 208A-638 (antibody, V domains shown) VH: QGQLQQPGAEFVKPGASLKLSCRASGYTFTSYWIHWVKQRPGQGLEWIGEVDPSDSYINQNEKFRGKATLTVDKSSSTAYMQLGSLTSEDSAVYYCARHYYGVLDSWGQGTALTVSS VL: QIVLTQSPTIMSASLGERVTMTCTASSSVSSSYLHWFQQKPGSSPKLWIYSTSNLASGVPPRFSGSGSGTSYSLSISSVEAEDVATYYCLQFHRSPWTFGGGAKLEIKR | 2.24 | 1.07 |  |
